Article PMC9482650, “Quantitative fragmentomics allow affinity mapping of interactomes” (Nature Communications, 2022)

T1: LIN7A, O14910
T1 sequence (O14910 103-200, limits assumed, looked up): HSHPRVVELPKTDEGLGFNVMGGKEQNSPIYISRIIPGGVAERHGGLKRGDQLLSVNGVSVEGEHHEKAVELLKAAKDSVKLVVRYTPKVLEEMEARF

T2: DLG3_1, Q92796
T2 sequence (Q92796 125-227, limits assumed, looked up): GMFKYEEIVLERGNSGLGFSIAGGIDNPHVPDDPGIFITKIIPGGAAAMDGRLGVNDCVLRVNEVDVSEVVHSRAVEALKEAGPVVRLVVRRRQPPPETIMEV

T3: DFNB31_3, Q9P202
T3 sequence (Q9P202 811-907, limits assumed, looked up): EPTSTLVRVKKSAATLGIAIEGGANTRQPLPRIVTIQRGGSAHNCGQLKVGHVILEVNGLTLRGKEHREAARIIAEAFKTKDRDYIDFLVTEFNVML

T4: NHERF3_4, Q5T2W1
T4 sequence (Q5T2W1 373-468, limits assumed, looked up): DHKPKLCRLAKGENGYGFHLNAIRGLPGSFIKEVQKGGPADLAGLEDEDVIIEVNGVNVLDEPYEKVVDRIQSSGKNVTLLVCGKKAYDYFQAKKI

T5: NHERF3_1, Q5T2W1
T5 sequence (Q5T2W1 4-100, limits assumed, looked up): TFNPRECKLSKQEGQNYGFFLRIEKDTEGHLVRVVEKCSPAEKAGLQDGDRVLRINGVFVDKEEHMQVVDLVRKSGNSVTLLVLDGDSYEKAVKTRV

T6: PDZD2_2, O15018
T6 sequence (O15018 329-429, limits assumed, looked up): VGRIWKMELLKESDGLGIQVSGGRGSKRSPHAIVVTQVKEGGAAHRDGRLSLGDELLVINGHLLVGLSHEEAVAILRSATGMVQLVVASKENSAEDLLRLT

T7: SNTA1, Q13424
T7 sequence (Q13424 82-180, limits assumed, looked up): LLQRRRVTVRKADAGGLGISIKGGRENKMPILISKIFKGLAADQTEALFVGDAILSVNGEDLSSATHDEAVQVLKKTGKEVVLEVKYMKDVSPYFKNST

T8: MPP6, Q9NZW5
T8 sequence (Q9NZW5 125-219, limits assumed, looked up): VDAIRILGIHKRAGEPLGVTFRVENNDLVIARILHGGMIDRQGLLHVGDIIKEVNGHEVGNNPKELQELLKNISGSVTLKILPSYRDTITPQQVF

T9: PCLO, Q9Y6V0
T9 sequence (Q9Y6V0 4491-4600, limits assumed, looked up): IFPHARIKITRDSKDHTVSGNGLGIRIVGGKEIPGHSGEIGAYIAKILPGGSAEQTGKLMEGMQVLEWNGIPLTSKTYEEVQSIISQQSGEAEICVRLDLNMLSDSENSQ

T10: SIPA1L2, Q9P2F8
T10 sequence (Q9P2F8 945-1036, limits assumed, looked up): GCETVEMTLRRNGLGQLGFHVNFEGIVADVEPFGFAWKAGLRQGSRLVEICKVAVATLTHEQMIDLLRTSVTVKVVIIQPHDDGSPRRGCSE

T11: MPDZ_5, O75970
T11 sequence (O75970 695-796, limits assumed, looked up): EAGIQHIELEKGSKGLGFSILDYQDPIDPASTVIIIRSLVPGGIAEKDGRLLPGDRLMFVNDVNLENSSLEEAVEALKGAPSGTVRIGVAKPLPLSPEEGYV


biological target: T1, LIN7A, O14910; experiment: holdup assay; parameters: key: below the threshold = too weak to quantify, mostly under pKd 3.1 to 4; settings: plain residues with an end cap or a label only (N-terminal biotin on a linker: ado-ado)

Row | Binder | pKd
1 | DFKHTKSFII [JAM2, P57087] | below the threshold
2 | PKSNSSKEYV [CLDN7, O95471] | below the threshold

biological target: T2, DLG3_1, Q92796; experiment: holdup assay; parameters: key: below the threshold = too weak to quantify, mostly under pKd 3.1 to 4; settings: plain residues with an end cap or a label only (N-terminal biotin on a linker: ado-ado)

Row | Binder | pKd
3 | DFKHTKSFII [JAM2, P57087] | below the threshold
4 | PKSNSSKEYV [CLDN7, O95471] | below the threshold

biological target: GRIP2_5, Q9C0E4; experiment: holdup assay; parameters: key: below the threshold = too weak to quantify, mostly under pKd 3.1 to 4; settings: plain residues with an end cap or a label only (N-terminal biotin on a linker: ado-ado)
Sequence (Q9C0E4 544-642): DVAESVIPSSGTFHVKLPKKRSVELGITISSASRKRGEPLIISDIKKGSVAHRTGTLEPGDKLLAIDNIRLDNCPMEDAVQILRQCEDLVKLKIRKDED

Row | Binder | pKd
5 | DFKHTKSFII [JAM2, P57087] | below the threshold
6 | PKSNSSKEYV [CLDN7, O95471] | below the threshold

biological target: CASK, O14936; experiment: holdup assay; parameters: key: below the threshold = too weak to quantify, mostly under pKd 3.1 to 4; settings: plain residues with an end cap or a label only (N-terminal biotin on a linker: ado-ado)
Sequence (O14936 487-570): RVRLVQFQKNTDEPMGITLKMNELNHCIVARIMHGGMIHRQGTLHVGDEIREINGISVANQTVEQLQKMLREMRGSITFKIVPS

Row | Binder | pKd
7 | DFKHTKSFII [JAM2, P57087] | below the threshold
8 | PKSNSSKEYV [CLDN7, O95471] | below the threshold

biological target: IL16_3, Q14005; experiment: holdup assay; parameters: key: below the threshold = too weak to quantify, mostly under pKd 3.1 to 4; settings: plain residues with an end cap or a label only (N-terminal biotin on a linker: ado-ado)
Sequence (Q14005 1107-1207): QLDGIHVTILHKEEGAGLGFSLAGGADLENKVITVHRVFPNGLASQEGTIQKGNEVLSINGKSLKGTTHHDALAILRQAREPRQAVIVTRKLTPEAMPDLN

Row | Binder | pKd
9 | DFKHTKSFII [JAM2, P57087] | below the threshold
10 | PKSNSSKEYV [CLDN7, O95471] | below the threshold

biological target: T3, DFNB31_3, Q9P202; experiment: holdup assay; parameters: key: below the threshold = too weak to quantify, mostly under pKd 3.1 to 4; settings: plain residues with an end cap or a label only (N-terminal biotin on a linker: ado-ado)

Row | Binder | pKd
11 | DFKHTKSFII [JAM2, P57087] | 3.71
12 | PKSNSSKEYV [CLDN7, O95471] | below the threshold

biological target: GOPC, Q9HD26; experiment: holdup assay; parameters: key: below the threshold = too weak to quantify, mostly under pKd 3.1 to 4; settings: plain residues with an end cap or a label only (N-terminal biotin on a linker: ado-ado)

Row | Binder | pKd
13 | DFKHTKSFII [JAM2, P57087] | below the threshold
14 | PKSNSSKEYV [CLDN7, O95471] | 3.7

biological target: GRID2IP_2, A4D2P6; experiment: holdup assay; parameters: key: below the threshold = too weak to quantify, mostly under pKd 3.1 to 4; settings: plain residues with an end cap or a label only (N-terminal biotin on a linker: ado-ado)
Sequence (A4D2P6 272-370): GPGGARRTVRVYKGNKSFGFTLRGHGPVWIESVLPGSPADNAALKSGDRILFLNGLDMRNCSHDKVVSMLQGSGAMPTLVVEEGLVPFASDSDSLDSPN

Row | Binder | pKd
15 | DFKHTKSFII [JAM2, P57087] | below the threshold
16 | PKSNSSKEYV [CLDN7, O95471] | below the threshold

biological target: HTRA2, O43464; experiment: holdup assay; parameters: key: below the threshold = too weak to quantify, mostly under pKd 3.1 to 4; settings: plain residues with an end cap or a label only (N-terminal biotin on a linker: ado-ado)
Sequence (O43464 355-458): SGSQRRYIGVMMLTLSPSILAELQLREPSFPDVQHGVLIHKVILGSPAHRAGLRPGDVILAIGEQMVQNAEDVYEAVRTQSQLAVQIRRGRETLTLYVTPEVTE

Row | Binder | pKd
17 | DFKHTKSFII [JAM2, P57087] | 3.88
18 | PKSNSSKEYV [CLDN7, O95471] | below the threshold

biological target: MAST1, Q9Y2H9; experiment: holdup assay; parameters: key: below the threshold = too weak to quantify, mostly under pKd 3.1 to 4; settings: plain residues with an end cap or a label only (N-terminal biotin on a linker: ado-ado)
Sequence (Q9Y2H9 962-1065): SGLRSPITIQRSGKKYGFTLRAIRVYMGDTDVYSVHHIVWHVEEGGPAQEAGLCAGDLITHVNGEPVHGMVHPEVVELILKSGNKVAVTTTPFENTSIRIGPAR

Row | Binder | pKd
19 | DFKHTKSFII [JAM2, P57087] | 3.7
20 | PKSNSSKEYV [CLDN7, O95471] | 3.62

biological target: T4, NHERF3_4, Q5T2W1; experiment: holdup assay; parameters: key: below the threshold = too weak to quantify, mostly under pKd 3.1 to 4; settings: plain residues with an end cap or a label only (N-terminal biotin on a linker: ado-ado)

Row | Binder | pKd
21 | DFKHTKSFII [JAM2, P57087] | below the threshold
22 | PKSNSSKEYV [CLDN7, O95471] | below the threshold

biological target: T5, NHERF3_1, Q5T2W1; experiment: holdup assay; parameters: key: below the threshold = too weak to quantify, mostly under pKd 3.1 to 4; settings: plain residues with an end cap or a label only (N-terminal biotin on a linker: ado-ado)

Row | Binder | pKd
23 | DFKHTKSFII [JAM2, P57087] | below the threshold
24 | PKSNSSKEYV [CLDN7, O95471] | below the threshold

biological target: DLG1_2, Q12959; experiment: holdup assay; parameters: key: below the threshold = too weak to quantify, mostly under pKd 3.1 to 4; settings: plain residues with an end cap or a label only (N-terminal biotin on a linker: ado-ado)

Row | Binder | pKd
25 | DFKHTKSFII [JAM2, P57087] | 3.81
26 | PKSNSSKEYV [CLDN7, O95471] | below the threshold

biological target: T6, PDZD2_2, O15018; experiment: holdup assay; parameters: key: below the threshold = too weak to quantify, mostly under pKd 3.1 to 4; settings: plain residues with an end cap or a label only (N-terminal biotin on a linker: ado-ado)

Row | Binder | pKd
27 | DFKHTKSFII [JAM2, P57087] | 3.87
28 | PKSNSSKEYV [CLDN7, O95471] | 3.82

biological target: T7, SNTA1, Q13424; experiment: holdup assay; parameters: key: below the threshold = too weak to quantify, mostly under pKd 3.1 to 4; settings: plain residues with an end cap or a label only (N-terminal biotin on a linker: ado-ado)

Row | Binder | pKd
29 | DFKHTKSFII [JAM2, P57087] | below the threshold
30 | PKSNSSKEYV [CLDN7, O95471] | below the threshold

biological target: MAGI2_2, Q86UL8; experiment: holdup assay; parameters: key: below the threshold = too weak to quantify, mostly under pKd 3.1 to 4; settings: plain residues with an end cap or a label only (N-terminal biotin on a linker: ado-ado)
Sequence (Q86UL8 410-522): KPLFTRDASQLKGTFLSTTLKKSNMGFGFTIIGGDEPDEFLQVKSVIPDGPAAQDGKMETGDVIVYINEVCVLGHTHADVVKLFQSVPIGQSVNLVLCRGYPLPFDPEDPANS

Row | Binder | pKd
31 | DFKHTKSFII [JAM2, P57087] | below the threshold
32 | PKSNSSKEYV [CLDN7, O95471] | below the threshold

biological target: T8, MPP6, Q9NZW5; experiment: holdup assay; parameters: key: below the threshold = too weak to quantify, mostly under pKd 3.1 to 4; settings: plain residues with an end cap or a label only (N-terminal biotin on a linker: ado-ado)

Row | Binder | pKd
33 | DFKHTKSFII [JAM2, P57087] | below the threshold
34 | PKSNSSKEYV [CLDN7, O95471] | below the threshold

biological target: NHERF2_2, Q15599; experiment: holdup assay; parameters: key: below the threshold = too weak to quantify, mostly under pKd 3.1 to 4; settings: plain residues with an end cap or a label only (N-terminal biotin on a linker: ado-ado)
Sequence (Q15599 142-238): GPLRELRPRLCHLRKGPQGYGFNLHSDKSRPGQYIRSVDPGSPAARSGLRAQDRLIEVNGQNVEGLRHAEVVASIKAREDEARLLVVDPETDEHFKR

Row | Binder | pKd
35 | DFKHTKSFII [JAM2, P57087] | below the threshold
36 | PKSNSSKEYV [CLDN7, O95471] | below the threshold

biological target: GRASP, Q7Z6J2; experiment: holdup assay; parameters: key: below the threshold = too weak to quantify, mostly under pKd 3.1 to 4; settings: plain residues with an end cap or a label only (N-terminal biotin on a linker: ado-ado)
Sequence (Q7Z6J2 96-193): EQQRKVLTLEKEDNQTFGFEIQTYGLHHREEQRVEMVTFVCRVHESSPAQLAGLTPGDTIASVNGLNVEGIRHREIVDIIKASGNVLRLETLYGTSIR

Row | Binder | pKd
37 | DFKHTKSFII [JAM2, P57087] | below the threshold
38 | PKSNSSKEYV [CLDN7, O95471] | below the threshold

biological target: FRMPD3, Q5JV73; experiment: holdup assay; parameters: key: below the threshold = too weak to quantify, mostly under pKd 3.1 to 4; settings: plain residues with an end cap or a label only (N-terminal biotin on a linker: ado-ado)
Sequence (Q5JV73 12-100): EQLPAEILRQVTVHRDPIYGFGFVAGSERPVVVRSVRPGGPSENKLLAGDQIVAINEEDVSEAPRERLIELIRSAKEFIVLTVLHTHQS

Row | Binder | pKd
39 | DFKHTKSFII [JAM2, P57087] | below the threshold
40 | PKSNSSKEYV [CLDN7, O95471] | below the threshold

biological target: DLG1_3, Q12959; experiment: holdup assay; parameters: key: below the threshold = too weak to quantify, mostly under pKd 3.1 to 4; settings: plain residues with an end cap or a label only (N-terminal biotin on a linker: ado-ado)

Row | Binder | pKd
41 | DFKHTKSFII [JAM2, P57087] | below the threshold
42 | PKSNSSKEYV [CLDN7, O95471] | below the threshold

biological target: DLG1_1, Q12959; experiment: holdup assay; parameters: key: below the threshold = too weak to quantify, mostly under pKd 3.1 to 4; settings: plain residues with an end cap or a label only (N-terminal biotin on a linker: ado-ado)

Row | Binder | pKd
43 | DFKHTKSFII [JAM2, P57087] | below the threshold
44 | PKSNSSKEYV [CLDN7, O95471] | below the threshold

biological target: GRIP2_6, Q9C0E4; experiment: holdup assay; parameters: key: below the threshold = too weak to quantify, mostly under pKd 3.1 to 4; settings: plain residues with an end cap or a label only (N-terminal biotin on a linker: ado-ado)
Sequence (Q9C0E4 648-740): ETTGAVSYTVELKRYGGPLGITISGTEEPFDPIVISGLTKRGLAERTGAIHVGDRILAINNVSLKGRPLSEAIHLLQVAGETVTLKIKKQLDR

Row | Binder | pKd
45 | DFKHTKSFII [JAM2, P57087] | 4.41
46 | PKSNSSKEYV [CLDN7, O95471] | below the threshold

biological target: T9, PCLO, Q9Y6V0; experiment: holdup assay; parameters: key: below the threshold = too weak to quantify, mostly under pKd 3.1 to 4; settings: plain residues with an end cap or a label only (N-terminal biotin on a linker: ado-ado)

Row | Binder | pKd
47 | DFKHTKSFII [JAM2, P57087] | below the threshold
48 | PKSNSSKEYV [CLDN7, O95471] | below the threshold

biological target: T10, SIPA1L2, Q9P2F8; experiment: holdup assay; parameters: key: below the threshold = too weak to quantify, mostly under pKd 3.1 to 4; settings: plain residues with an end cap or a label only (N-terminal biotin on a linker: ado-ado)

Row | Binder | pKd
49 | DFKHTKSFII [JAM2, P57087] | below the threshold
50 | PKSNSSKEYV [CLDN7, O95471] | below the threshold

biological target: T11, MPDZ_5, O75970; experiment: holdup assay; parameters: key: below the threshold = too weak to quantify, mostly under pKd 3.1 to 4; settings: plain residues with an end cap or a label only (N-terminal biotin on a linker: ado-ado)

Row | Binder | pKd
51 | DFKHTKSFII [JAM2, P57087] | below the threshold
52 | PKSNSSKEYV [CLDN7, O95471] | below the threshold

biological target: FRMPD2_3, Q68DX3; experiment: holdup assay; parameters: key: below the threshold = too weak to quantify, mostly under pKd 3.1 to 4; settings: plain residues with an end cap or a label only (N-terminal biotin on a linker: ado-ado)
Sequence (Q68DX3 1073-1166): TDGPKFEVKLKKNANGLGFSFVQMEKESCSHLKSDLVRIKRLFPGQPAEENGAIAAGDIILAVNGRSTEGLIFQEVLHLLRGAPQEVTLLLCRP

Row | Binder | pKd
53 | DFKHTKSFII [JAM2, P57087] | below the threshold
54 | PKSNSSKEYV [CLDN7, O95471] | below the threshold
